# Assay results published in the supplement of paper PMC10567573.
# B1: ANKRD40 (parent)
# chain: VCCCELGVNPDQVEKIRKLPNTLL
# Variants of: B1
# Experiment: protein stability index of a GFP-peptide fusion (GPS, HEK-293T) (PSI 1-6); higher = more stable
# Conditions: c terminus: a fixed tail appended
# 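Further: lentivirally expressed fusions sorted by FACS into six bins by GFP to DsRed ratio, PSI derived from sequencing read proportions per bin multiplied by bin number.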
row,Variant,protein stability index
1,VCCCELGVNPDQVEKIRKLANTLL,1.88
2,VCCCELGVNPQQVEKIRKLPNTLL,1.63
3,VCCCELGVNPDQVEKIMKLPNTLL,1.9
4,VCCCELGVNPDQVEKIRKLSNTLL,1.95
5,VCCCELGQNPDQVEKIRKLPNTLL,1.85
6,VCCCELGVNPDQVHKIRKLPNTLL,2.08
7,VCCEELGVNPDQVEKIRKLPNTLL,3
8,VCCCELFVNPDQVEKIRKLPNTLL,2.27
9,VCCCELGVNPPQVEKIRKLPNTLL,1.24
10,VCCCELGVNPDQVEKIRKLPNWLL,2.01
11,VICCELGVNPDQVEKIRKLPNTLL,1.62
12,VCCCELGVNPDQVEKIRFLPNTLL,2.53
13,VCCCELGVNPDQLEKIRKLPNTLL,1.64
14,VCCCELGVNPDQVEKIRWLPNTLL,1.75
15,VCCCELGVNPDQVEKIRYLPNTLL,1.31
16,VCCCELGVNPDQVEKIRKSPNTLL,2.17
17,VCCCELGVNPDQVEKIRVLPNTLL,2.15
18,VCRCELGVNPDQVEKIRKLPNTLL,2.1
19,VCCCELGVNPDQVEKIRKLPNLLL,2.73
20,VCCCELQVNPDQVEKIRKLPNTLL,2.02
21,VCCCELGVNPDQVEKIRKLPNTLY,1.84
22,VCCCELGVLPDQVEKIRKLPNTLL,1.97
23,VCCCELGVNPDQVEKRRKLPNTLL,2.12
24,VCCCELGVNPDQVEKIKKLPNTLL,2.29

row,Variant,protein stability index
1,VCMCELGVNPDQVEKIRKLPNTLL,2.29
2,VCCCELGVNGDQVEKIRKLPNTLL,2.17
3,VCCCELGVNPDQVEKIRKLPITLL,2.15
4,VCCCELGVNPDQVEKIRKLPNTWL,2.9
5,VCACELGVNPDQVEKIRKLPNTLL,2.42
6,VCCCELGVNPDQVEKIRKLPNTYL,1.45
7,VCCCELGVNPDQVEHIRKLPNTLL,1.36
8,FCCCELGVNPDQVEKIRKLPNTLL,1.5
9,VCCCELGVNPDQREKIRKLPNTLL,2.27
10,VCCCELGVNPDQVEKFRKLPNTLL,1.69
11,VCCCELGVNPDQVEKIRRLPNTLL,2.18
12,VCCCELGVNPDQVEKIRKVPNTLL,2.62
13,VCCCGLGVNPDQVEKIRKLPNTLL,1.33
14,VCCCELGVNTDQVEKIRKLPNTLL,1.98
15,VCCTELGVNPDQVEKIRKLPNTLL,2.76
16,VCCCELGVNPDQVEKIRKLMNTLL,1.57
17,VCCCELGVNPDQVEKPRKLPNTLL,2.89
18,VCCCELGVNPDQVEWIRKLPNTLL,2.53
19,VCCCNLGVNPDQVEKIRKLPNTLL,1.97
20,VCCCELGVNPDQVQKIRKLPNTLL,1.48
21,VCCCELGVNPDQVEEIRKLPNTLL,2.81
22,VCCCELGVNPDQVEKIRKLPNTLK,2.09
23,HCCCELGVNPDQVEKIRKLPNTLL,2.21
24,VCCCELGVNPDQVEKIRKHPNTLL,1.79

row,Variant,protein stability index
1,VCKCELGVNPDQVEKIRKLPNTLL,2.23
2,VCCCELGVNPDQDEKIRKLPNTLL,3.11
3,VCCCELGVQPDQVEKIRKLPNTLL,1.62
4,VCCCELGVNPDQVEAIRKLPNTLL,1.68
5,VCCCELGVNPDVVEKIRKLPNTLL,2.24
6,VCCCELGVNPDQVEKGRKLPNTLL,2.01
7,VCCCELGVNPDQVEKIRKLPNKLL,2.1
8,VCCRELGVNPDQVEKIRKLPNTLL,2.43
9,VCCCELGVNPDQWEKIRKLPNTLL,2.07
10,VCCCELGVNPDQVEKIRKLPNHLL,1.8
11,VCCCELGVNCDQVEKIRKLPNTLL,1.94
12,VCCVELGVNPDQVEKIRKLPNTLL,2.74
13,VQCCELGVNPDQVEKIRKLPNTLL,3.56
14,VWCCELGVNPDQVEKIRKLPNTLL,1.45
15,VCCCELGNNPDQVEKIRKLPNTLL,1.99
16,VCCCELGVNPDQVEKIRKLPSTLL,1.9
17,VCCCELGVNPDQGEKIRKLPNTLL,2.5
18,VCCCELGVNPDQVEKIRKLPNTAL,1.98
19,VCDCELGVNPDQVEKIRKLPNTLL,2.31
20,CCCCELGVNPDQVEKIRKLPNTLL,1.96
21,VCCCELGVNPDQVEKIRKFPNTLL,1.57
22,VCCCELGVNPDQVEKIRKLPFTLL,1.95
23,VCCCELGVNPDQVEFIRKLPNTLL,2.06
24,VCCCELGVNPDQPEKIRKLPNTLL,2.18

row,Variant,protein stability index
1,VCCCELGVNPDQVEKIRKLKNTLL,1.95
2,VCCCELGVNPDQVMKIRKLPNTLL,1.53
3,VCTCELGVNPDQVEKIRKLPNTLL,2.38
4,VCCCELGVNPDQAEKIRKLPNTLL,1.71
5,VCCCELGVNPDQVEKTRKLPNTLL,2.56
6,VGCCELGVNPDQVEKIRKLPNTLL,2.73
7,VCWCELGVNPDQVEKIRKLPNTLL,1.81
8,VCCCELGVNFDQVEKIRKLPNTLL,2.23
9,VCCCELGVNPDQVEKIRKMPNTLL,2.1
10,VCCCELGVNPDQVEKIRKLCNTLL,1.38
11,VCCCELGVNPDQMEKIRKLPNTLL,1.67
12,VCCCELGVNPDQVKKIRKLPNTLL,1.48
13,VCCCELGENPDQVEKIRKLPNTLL,2.39
14,VCCCELGVNPDQVEKARKLPNTLL,3.14
15,VCCCELGVNPDQFEKIRKLPNTLL,1.4
16,VCCCELGVNPDQVEKIRKLPNTLA,1.71
17,VCCCELGVNPDQVEKIRKLPNPLL,2.21
18,VCCCELGVCPDQVEKIRKLPNTLL,1.66
19,VCCCELGVNPDQVEKVRKLPNTLL,2.38
20,VCCCSLGVNPDQVEKIRKLPNTLL,2.81
21,VCCCELGVEPDQVEKIRKLPNTLL,1.7
22,VCCCELGVNPKQVEKIRKLPNTLL,1.89
